Legend:
[1] = molecular target: MasL-collimonin D complex (MasL modified by collimonin D) (Massilia sp. YMA4); assay: crystal structure; X-ray crystal structures of MasL, apo and after incubation with collimonin C or D; a tetramer in the asymmetric unit (space groups P1, P2_(1), P1)
[2] = molecular target: MasL (acetyl-CoA acetyltransferase of Massilia sp. YMA4), apo form (Massilia sp. YMA4); assay: not stated; oligomeric state of MasL in solution; method not given
[3] = molecular target: MasL (acetyl-CoA acetyltransferase of Massilia sp. YMA4), apo form (Massilia sp. YMA4); assay: crystal structure; X-ray crystal structures of MasL, apo and after incubation with collimonin C or D; a tetramer in the asymmetric unit (space groups P1, P2_(1), P1)
MasL = molecular target: T1, MasL ([Empedobacter] haloabium, UniProt A0A915Q9D3); assay: CoA release, fluorescent probe; progress curves, covalent inhibitor model; type: biochemical
T1 construct: gene E7V67_18950; recombinant, purified from E. coli; residues 1-394 described; tetramer in solution; reactive Cys90, His350, Cys380; tag details in supplement
T1 sequence (A0A915Q9D3 entry or part of it): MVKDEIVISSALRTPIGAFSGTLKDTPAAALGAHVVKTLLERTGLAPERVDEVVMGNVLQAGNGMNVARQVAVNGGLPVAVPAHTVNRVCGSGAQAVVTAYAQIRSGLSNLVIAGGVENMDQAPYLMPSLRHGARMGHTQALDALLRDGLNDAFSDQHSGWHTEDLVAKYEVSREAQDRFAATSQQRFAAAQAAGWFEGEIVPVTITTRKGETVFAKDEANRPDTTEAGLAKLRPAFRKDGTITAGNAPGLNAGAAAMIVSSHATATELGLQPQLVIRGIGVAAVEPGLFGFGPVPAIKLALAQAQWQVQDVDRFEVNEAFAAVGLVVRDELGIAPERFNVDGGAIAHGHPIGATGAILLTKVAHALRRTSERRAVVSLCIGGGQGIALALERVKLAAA
Source text: CoA release, fluorescent probe; progress curves, covalent inhibitor model on MasL

[4] = molecular target: MasL-collimonin C complex (MasL covalently modified by collimonin C at Cys90) (Massilia sp. YMA4); assay: crystal structure; X-ray crystal structures of MasL, apo and after incubation with collimonin C or D; a tetramer in the asymmetric unit (space groups P1, P2_(1), P1)

With “MasL-collimonin D complex (MasL modified by collimonin D) (enzyme)” the stoichiometry N [1] was 4.

Work on “MasL (acetyl-CoA acetyltransferase of Massilia sp. YMA4), apo form (enzyme)” yielded a stoichiometry N [2] of 4 and a stoichiometry N [3] of 4.

Work on `C#CC#CC#C/C=C/C[C@@H](O)[C@H](O)CCCCC(=O)O` [compound 2, collimonin D] yielded a KI (inactivation) (MasL; covalent, irreversible S-alkylation of Cys90 (by MS), competitive against acetyl-CoA, complex structure 1.40 Å) of 42.8 µM.

With “MasL-collimonin C complex (MasL covalently modified by collimonin C at Cys90) (enzyme)” the stoichiometry N [4] was 4.

`C#CC#CC#C/C=C/CCCCCCCC(=O)O` [compound 5, massilin C] gave a KI (inactivation) (MasL; covalent inhibitor model) of 228 µM.

With `C#CC#CC#C/C=C/CCC(O)CCCCC(=O)O` (centres unmarked) [compound 3, massilin A] the KI (inactivation) (MasL; covalent, adduct by mass spectrometry) was 132 µM.

`C#CC#CC#C/C=C/C[C@@H](O)[C@@H](O)CCCCC(=O)O` [compound 1, collimonin C] gave a KI (inactivation) (MasL; covalent, irreversible S-alkylation of Cys90, competitive against acetyl-CoA, complex structure 1.66 Å) of 297 µM.

From PMC9098870, “Integrated omics approach to unveil antifungal bacterial polyynes as acetyl-CoA acetyltransferase inhibitors” (Communications Biology, 2022)
